Test results as given in US20220041725A1 (MacroGenics, published 2022).
Blank lines part the entries; values can stand above or below the molecule they belong to.

Target: T1, HER-2 (UniProt P04626 23-652, limits assumed)
T1 construct: also called HER2/neu; erbB-2
Test: SPR (BIAcore 1000), HER-2 amine-coupled on chip, antibody injected at 6.25-200 nM

koff: 6.3e-06 s⁻¹
kon: 110000 M⁻¹ s⁻¹
Molecule: ch4D5 (antibody)

koff: ~3.2e-07 s⁻¹
kon: 170000 M⁻¹ s⁻¹
B1: ch4D5-wild-type Fc (antibody, human IgG1, kappa, V domains shown)
VH: QVQLQQSGPELVKPGASLKLSCTASGFNIKDTYIHWVKQRPEQGLEWIGRIYPTNGYTRYDPKFQDKATITADTSSNTAYLQVSRLTSEDTAVYYCSRWGGDGFYAMDYWGQGASVTVSS
VL: DIVMTQSHKFMSTSVGDRVSITCKASQDVNTAVAWYQQKPGHSPKLLIYSASFRYTGVPDRFTGSRSGTDFTFTISSVQAEDLAVYYCQQHYTTPPTFGGGTKVEIKR
notes: Chimeric IgG with wild-type human IgG1 Fc; also called ch4D5-FcWT (wild-type Fc); Chimeric 4D5 Antibody having a wild-type Fc
